Data taken from patent US20160251450A1.
Each block holds one substance with its values, some of them ahead of it.

Assays:
[1] = molecular target: Anti-OVA IgG (rabbit-derived); test: ELISA: OVA coated, rabbit Anti-OVA IgG, then wild-type pG sample (negative control), then HRP-labeled anti-guinea pig IgG, TMB. The signal needs a second free IgG-binding site
[2] = molecular target: Anti-OVA IgG (rabbit-derived); test: ELISA: OVA coated, rabbit Anti-OVA IgG, then HRP-labeled anti-rabbit IgG instead of the hybrid, TMB (sample No. 8)
[3] = molecular target: Anti-OVA IgG (rabbit-derived); test: ELISA: OVA coated, rabbit Anti-OVA IgG, HRP-labeled anti-rabbit IgG. Signal against the no-antigen control
[4] = molecular target: Anti-OVA IgG (rabbit-derived); test: ELISA: OVA coated, rabbit Anti-OVA IgG, then K-tag pG alone (negative control), then HRP-labeled anti-guinea pig IgG, TMB. The signal needs a second free IgG-binding site

- change in the absorbance at 370 nm (dO.D./min) [1]: < 0.03 dO.D./min
Substance: wild-type pG having no introduced K-tag (thrombin-treated K-tag pG)

- change in the absorbance at 370 nm (dO.D./min) [2]: 0.18 dO.D./min
- S/N ratio (No. 8 against No. 4 without antigen) [3]: 4.6
Substance: commercially available HRP-labeled anti-rabbit IgG (antibody)

- change in the absorbance at 370 nm (dO.D./min) [4]: < 0.03 dO.D./min
Substance: recombinant protein G with K-tag (K-tag pG), alone, not cross-linked to polymer
